# Experimental data reported in US20210087522.
# T1: AFACP, ACP of the FAS from Anabaena
# T1 chain: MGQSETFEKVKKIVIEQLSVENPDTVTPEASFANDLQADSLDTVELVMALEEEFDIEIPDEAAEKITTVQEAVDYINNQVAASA
# T2: APACP, ACP of the glycolipid PKS in Anabaena
# T2 chain: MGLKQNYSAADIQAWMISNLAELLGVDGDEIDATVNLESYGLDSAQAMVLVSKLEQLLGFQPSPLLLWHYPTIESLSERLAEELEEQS
# T3: APNPCP, CP of an uncharacterized NRP/PK gene cluster from Anabaena
# T3 chain: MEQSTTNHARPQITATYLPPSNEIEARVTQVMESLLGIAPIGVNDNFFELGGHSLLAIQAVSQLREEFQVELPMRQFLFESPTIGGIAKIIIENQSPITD
# T4: FNPCP, CP of an uncharacterized NRP gene cluster from Fischerella
# T4 chain: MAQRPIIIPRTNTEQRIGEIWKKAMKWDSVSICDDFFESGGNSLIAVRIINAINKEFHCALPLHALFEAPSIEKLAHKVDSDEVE
# T5: FNsACP, homolog of ArCPNp from Fischerella
# T5 chain: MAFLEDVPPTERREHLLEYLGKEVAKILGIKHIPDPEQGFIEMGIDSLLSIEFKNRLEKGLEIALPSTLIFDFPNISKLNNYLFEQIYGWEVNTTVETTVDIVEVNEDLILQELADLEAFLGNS
# T6: FisPCP, PCP of the shinorine gene cluster from Fischerella
# T6 chain: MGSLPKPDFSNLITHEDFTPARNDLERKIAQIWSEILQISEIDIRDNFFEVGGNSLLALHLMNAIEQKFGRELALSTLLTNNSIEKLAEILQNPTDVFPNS
# T7: MACP, CP of an uncharacterized NRP/PK gene cluster from M. aeruginosa NIES843
# T7 chain: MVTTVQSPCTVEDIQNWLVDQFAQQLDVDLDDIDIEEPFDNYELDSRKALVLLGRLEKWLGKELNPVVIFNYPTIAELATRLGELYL
# T8: SFACP, ACP of the FAS from Synechocystis
# T8 chain: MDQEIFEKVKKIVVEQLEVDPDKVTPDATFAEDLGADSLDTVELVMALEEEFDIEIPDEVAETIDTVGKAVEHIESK
# T9: SsPCP, PCP of a thaxtomin cluster from Streptomyces scabiei 87.22
# T9 chain: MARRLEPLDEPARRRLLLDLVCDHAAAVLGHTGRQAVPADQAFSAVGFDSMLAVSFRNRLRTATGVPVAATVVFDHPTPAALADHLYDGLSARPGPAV
# B1: APPT, Sfp-like phosphopantetheinyl transferase (PPTase) from Anabaena sp. PCC7120 (protein)
# chain: MLQHTWLPKPPNLTLLSDEVHLWRIPLDQPESQLQDLAATLSSDELARANRFYFPEHRRRFTAGRGILRSILGGYLGVEPGQVKFDYESRGKPILGDRFAESGLLFNLSHSQNLALCAVNYTRQIGIDLEYLRPTSDLESLAKRFFLPREYELLRSLPDEQKQKIFFRYWTCKEAYLKATGDGIAKLEEIEIALTPTEPAKLQTAPAWSLLELVPDDNCVAAVAVAGFGWQPKFWHY
# Legend:
# [1] = target: T1, AFACP, ACP of the FAS from Anabaena
# [2] = target: T2, APACP, ACP of the glycolipid PKS in …
# [3] = target: T3, APNPCP, CP of an uncharacterized NRP/PK …
# [4] = target: AprACP, ACP of the apratoxin (PK/NRP) gene cluster in Lyngbya sp.
# [5] = target: T4, FNPCP, CP of an uncharacterized NRP …
# [6] = target: T5, FNsACP, homolog of ArCPNp from …
# [7] = target: T6, FisPCP, PCP of the shinorine gene …
# [8] = target: T7, MACP, CP of an uncharacterized NRP/PK …
# [9] = target: T8, SFACP, ACP of the FAS from Synechocystis
# [10] = target: ScACP, ACP of a putative concanamycin gene cluster from Streptomyces coelicolor A(3)2
# [11] = target: T9, SsPCP, PCP of a thaxtomin cluster from …
protein,measurement,setting,value
B1,Km,[1],6.8 µM
same,kcat,[1],0.195 s⁻¹
same,kcat/Km,[1],28300 M⁻¹ s⁻¹
same,"phosphopantetheinylation of CP (apo to holo), LC-MS",[1],"APPT, AvPPT, MPPT and Sfp functionalized all substrates"
same,Km,[2],10 µM
same,kcat,[2],0.283 s⁻¹
same,kcat/Km,[2],26700 M⁻¹ s⁻¹
same,"phosphopantetheinylation of CP (apo to holo), LC-MS",[2],"APPT, AvPPT, MPPT and Sfp functionalized all substrates"
same,Km,[3],1.6 µM
same,kcat,[3],0.0167 s⁻¹
same,kcat/Km,[3],10000 M⁻¹ s⁻¹
same,"phosphopantetheinylation of CP (apo to holo), LC-MS",[3],"APPT, AvPPT, MPPT and Sfp functionalized all substrates"
same,Km,[4],7.8 µM
same,kcat,[4],0.238 s⁻¹
same,kcat/Km,[4],30000 M⁻¹ s⁻¹
same,"phosphopantetheinylation of CP (apo to holo), LC-MS",[4],"APPT, AvPPT, MPPT and Sfp functionalized all substrates"
same,Km,[5],12.1 µM
same,kcat,[5],0.203 s⁻¹
same,kcat/Km,[5],16700 M⁻¹ s⁻¹
same,"phosphopantetheinylation of CP (apo to holo), LC-MS",[5],"APPT, AvPPT, MPPT and Sfp functionalized all substrates"
same,Km,[6],8.4 µM
same,kcat,[6],0.0367 s⁻¹
same,kcat/Km,[6],5000 M⁻¹ s⁻¹
same,"phosphopantetheinylation of CP (apo to holo), LC-MS",[6],"APPT, AvPPT, MPPT and Sfp functionalized all substrates"
same,Km,[7],7.1 µM
same,kcat,[7],0.0383 s⁻¹
same,kcat/Km,[7],5000 M⁻¹ s⁻¹
same,"phosphopantetheinylation of CP (apo to holo), LC-MS",[7],"APPT, AvPPT, MPPT and Sfp functionalized all substrates"
same,Km,[8],7.9 µM
same,kcat,[8],0.0617 s⁻¹
same,kcat/Km,[8],8330 M⁻¹ s⁻¹
same,"phosphopantetheinylation of CP (apo to holo), LC-MS",[8],"APPT, AvPPT, MPPT and Sfp functionalized all substrates"
same,Km,[9],2.8 µM
same,kcat,[9],0.0267 s⁻¹
same,kcat/Km,[9],10000 M⁻¹ s⁻¹
same,"phosphopantetheinylation of CP (apo to holo), LC-MS",[9],"APPT, AvPPT, MPPT and Sfp functionalized all substrates"
same,Km,[10],14.1 µM
same,kcat,[10],0.09 s⁻¹
same,kcat/Km,[10],6670 M⁻¹ s⁻¹
same,"phosphopantetheinylation of CP (apo to holo), LC-MS",[10],"APPT, AvPPT, MPPT and Sfp functionalized all substrates"
same,Km,[11],7.4 µM
same,kcat,[11],0.127 s⁻¹
same,kcat/Km,[11],16700 M⁻¹ s⁻¹
same,"phosphopantetheinylation of CP (apo to holo), LC-MS",[11],"APPT, AvPPT, MPPT and Sfp functionalized all substrates"
